Results taken from article PMC9554601.

Molecular target: stabilized SARS-CoV-2 spike protein trimer (S-6P) (SARS-CoV-2) (UniProt P0DTC2)
Experiment: cryo-EM structure

stabilized SARS-CoV-2 spike protein trimer (S-6P) (from UniProt P0DTC2)
stoichiometry N: 3
